Measurements as given in the Human Domainome abundance scans (Beltran et al. 2025).
± gives the uncertainty stated by the source.

B1: Proto-oncogene vav, residues 782 to 842; numbered along this chain, P15498 (parent)
chain: KYFGTAKARYDFCARDRSELSLKEGDIIKILNKKGQQGWWRGEIYGRVGWFPANYVEEDYS

Variants of: B1
Assay: abundance fitness (aPCA) (normalised: wild type 0, dead -1); higher = more abundant; growth selection in yeast, the domain comes from the species named
Details: Homo sapiens

Row | Variant | abundance fitness
1 | KYFGTAKARYDFCARDRSELSLKEGDAIKILNKKGQQGWWRGEIYGRVGWFPANYVEEDYS [I27A] | -0.331 ± 0.091
2 | KYFGTAKARYDFCARDRSELSLKEGDCIKILNKKGQQGWWRGEIYGRVGWFPANYVEEDYS [I27C] | -0.194 ± 0.085
3 | KYFGTAKARYDFCARDRSELSPKEGDIIKILNKKGQQGWWRGEIYGRVGWFPANYVEEDYS [L22P] | -0.971 ± 0.27
4 | KYFGTAKARYDFCARDRSELSHKEGDIIKILNKKGQQGWWRGEIYGRVGWFPANYVEEDYS [L22H] | -0.456 ± 0.2
5 | KYFGTAKARYDFCARDRSELSNKEGDIIKILNKKGQQGWWRGEIYGRVGWFPANYVEEDYS [L22N] | -0.91 ± 0.35
6 | KYFGTAKARYDFCARDRSELSAKEGDIIKILNKKGQQGWWRGEIYGRVGWFPANYVEEDYS [L22A] | -0.494 ± 0.12
7 | KYFGTAKARYDFCARDRSELSRKEGDIIKILNKKGQQGWWRGEIYGRVGWFPANYVEEDYS [L22R] | -0.791 ± 0.11
8 | KYFGTAKARYDFCARDRSELSQKEGDIIKILNKKGQQGWWRGEIYGRVGWFPANYVEEDYS [L22Q] | -1.07 ± 0.41
9 | KYFGTAKARYDFCARDRSELSVKEGDIIKILNKKGQQGWWRGEIYGRVGWFPANYVEEDYS [L22V] | -0.332 ± 0.12
10 | KYFGTAKARYDFCARDRSELSWKEGDIIKILNKKGQQGWWRGEIYGRVGWFPANYVEEDYS [L22W] | -0.888 ± 0.24
11 | KYFGTAKARYDFCARDRSELSKKEGDIIKILNKKGQQGWWRGEIYGRVGWFPANYVEEDYS [L22K] | -0.857 ± 0.26
12 | KYFGTAKARYDFCARDRSELSSKEGDIIKILNKKGQQGWWRGEIYGRVGWFPANYVEEDYS [L22S] | -0.852 ± 0.13
13 | KYFGTAKARYDFCARDRSELSCKEGDIIKILNKKGQQGWWRGEIYGRVGWFPANYVEEDYS [L22C] | -0.405 ± 0.2
14 | KYFGTAKARYDFCARDRSELSIKEGDIIKILNKKGQQGWWRGEIYGRVGWFPANYVEEDYS [L22I] | 0.016 ± 0.11
15 | KYFGTAKARYDFCARDRSELSFKEGDIIKILNKKGQQGWWRGEIYGRVGWFPANYVEEDYS [L22F] | 0.176 ± 0.1
16 | KYFGTAKARYDFCARDRSELSMKEGDIIKILNKKGQQGWWRGEIYGRVGWFPANYVEEDYS [L22M] | -0.13 ± 0.1
17 | KYFGTAKARYDFCARDRSELSLFEGDIIKILNKKGQQGWWRGEIYGRVGWFPANYVEEDYS [K23F] | -0.585 ± 0.17
18 | KYFGTAKARYDFCARDRSELSLHEGDIIKILNKKGQQGWWRGEIYGRVGWFPANYVEEDYS [K23H] | -0.142 ± 0.12
19 | KYFGTAKARYDFCARDRSELSLIEGDIIKILNKKGQQGWWRGEIYGRVGWFPANYVEEDYS [K23I] | -0.524 ± 0.19
20 | KYFGTAKARYDFCARDRSELSLAEGDIIKILNKKGQQGWWRGEIYGRVGWFPANYVEEDYS [K23A] | -0.222 ± 0.084
21 | KYFGTAKARYDFCARDRSELSLNEGDIIKILNKKGQQGWWRGEIYGRVGWFPANYVEEDYS [K23N] | -0.576 ± 0.2
22 | KYFGTAKARYDFCARDRSELSLTEGDIIKILNKKGQQGWWRGEIYGRVGWFPANYVEEDYS [K23T] | -0.237 ± 0.12

Row | Variant | abundance fitness
23 | KYFGTAKARYDFCARDRSELSLQEGDIIKILNKKGQQGWWRGEIYGRVGWFPANYVEEDYS [K23Q] | -0.221 ± 0.12
24 | KYFGTAKARYDFCARDRSELSLWEGDIIKILNKKGQQGWWRGEIYGRVGWFPANYVEEDYS [K23W] | -0.816 ± 0.2
25 | KYFGTAKARYDFCARDRSELSLEEGDIIKILNKKGQQGWWRGEIYGRVGWFPANYVEEDYS [K23E] | -0.613 ± 0.31
26 | KYFGTAKARYDFCARDRSELSLMEGDIIKILNKKGQQGWWRGEIYGRVGWFPANYVEEDYS [K23M] | -0.207 ± 0.11
27 | KYFGTAKARYDFCARDRSELSLYEGDIIKILNKKGQQGWWRGEIYGRVGWFPANYVEEDYS [K23Y] | -0.232 ± 0.24
28 | KYFGTAKARYDFCARDRSELSLSEGDIIKILNKKGQQGWWRGEIYGRVGWFPANYVEEDYS [K23S] | -0.168 ± 0.078
29 | KYFGTAKARYDFCARDRSELSLPEGDIIKILNKKGQQGWWRGEIYGRVGWFPANYVEEDYS [K23P] | -0.907 ± 0.25
30 | KYFGTAKARYDFCARDRSELSLGEGDIIKILNKKGQQGWWRGEIYGRVGWFPANYVEEDYS [K23G] | -0.815 ± 0.16
31 | KYFGTAKARYDFCARDRSELSLLEGDIIKILNKKGQQGWWRGEIYGRVGWFPANYVEEDYS [K23L] | -0.585 ± 0.097
32 | KYFGTAKARYDFCARDRSELSLKEGLIIKILNKKGQQGWWRGEIYGRVGWFPANYVEEDYS [D26L] | -0.814 ± 0.13
33 | KYFGTAKARYDFCARDRSELSLKEGQIIKILNKKGQQGWWRGEIYGRVGWFPANYVEEDYS [D26Q] | -0.278 ± 0.13
34 | KYFGTAKARYDFCARDRSELSLKEGMIIKILNKKGQQGWWRGEIYGRVGWFPANYVEEDYS [D26M] | -0.401 ± 0.14
35 | KYFGTAKARYDFCARDRSELSLKEGPIIKILNKKGQQGWWRGEIYGRVGWFPANYVEEDYS [D26P] | -1.15 ± 0.41
36 | KYFGTAKARYDFCARDRSELSLKEGKIIKILNKKGQQGWWRGEIYGRVGWFPANYVEEDYS [D26K] | -0.964 ± 0.3
37 | KYFGTAKARYDFCARDRSELSLKEGEIIKILNKKGQQGWWRGEIYGRVGWFPANYVEEDYS [D26E] | -0.172 ± 0.074
38 | KYFGTAKARYDFCARDRSELSLKEGIIIKILNKKGQQGWWRGEIYGRVGWFPANYVEEDYS [D26I] | -0.663 ± 0.29
39 | KYFGTAKARYDFCARDRSELSLKEGRIIKILNKKGQQGWWRGEIYGRVGWFPANYVEEDYS [D26R] | -0.996 ± 0.19
40 | KYFGTAKARYDFCARDRSELSLKEGHIIKILNKKGQQGWWRGEIYGRVGWFPANYVEEDYS [D26H] | -0.941 ± 0.31
41 | KYFGTAKARYDFCARDRSELSLKEGTIIKILNKKGQQGWWRGEIYGRVGWFPANYVEEDYS [D26T] | -0.777 ± 0.21
42 | KYFGTAKARYDFCARDRSELSLKEGVIIKILNKKGQQGWWRGEIYGRVGWFPANYVEEDYS [D26V] | -0.559 ± 0.072
43 | KYFGTAKARYDFCARDRSELSLKEGNIIKILNKKGQQGWWRGEIYGRVGWFPANYVEEDYS [D26N] | -0.45 ± 0.1
